From patent publication US20160207975A1 (published 2016)

Target: CGRP receptor (CALCRL:RAMP1) on CALCRL:RAMP1-CRE-bla Freestyle 293F cells (UniProt Q16602 23-461; O60894 27-148, limits assumed)
Experiment: cell-based or functional assay

Sequence of CGRP receptor (CALCRL:RAMP1) on CALCRL:RAMP1-CRE-bla Freestyle 293F cells (Q16602 23-461 limits assumed, chain 1 of 2): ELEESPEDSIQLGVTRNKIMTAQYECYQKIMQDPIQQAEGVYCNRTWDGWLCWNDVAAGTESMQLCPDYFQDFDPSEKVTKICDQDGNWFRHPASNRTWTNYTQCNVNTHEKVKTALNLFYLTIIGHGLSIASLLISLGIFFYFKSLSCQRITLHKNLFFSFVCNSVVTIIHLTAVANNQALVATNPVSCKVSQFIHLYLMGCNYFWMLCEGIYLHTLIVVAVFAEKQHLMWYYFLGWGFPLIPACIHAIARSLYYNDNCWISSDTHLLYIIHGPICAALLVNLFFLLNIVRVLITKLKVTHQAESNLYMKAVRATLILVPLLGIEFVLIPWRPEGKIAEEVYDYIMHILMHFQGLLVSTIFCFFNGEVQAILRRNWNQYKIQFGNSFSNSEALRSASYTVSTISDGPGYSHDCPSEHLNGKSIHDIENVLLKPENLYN
Sequence of CGRP receptor (CALCRL:RAMP1) on CALCRL:RAMP1-CRE-bla Freestyle 293F cells (O60894 27-148 limits assumed, chain 2 of 2): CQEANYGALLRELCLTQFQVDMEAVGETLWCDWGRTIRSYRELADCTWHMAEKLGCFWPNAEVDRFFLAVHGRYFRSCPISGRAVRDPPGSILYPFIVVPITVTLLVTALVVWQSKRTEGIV

H-ACDTATCVLGRLSQELHRLQTYPRTNVGSKAF-NH2 (ends and bridges not checked) [ACX017 (SEQ ID NO:1)]
percent activation of the CGRP receptor (CALCRL:RAMP1-CRE-bla Freestyle 293F agonist screen), EC50: ~105 nM
